What all share (assay): pull-down; GST fusion protein or GST immobilised on GSH beads, incubated with purified recombinant protein; 20 mM Tris-HCl pH 7.5, 150 mM NaCl, 3 mM EDTA, 0.5% Triton X-100, 4 C, 2 h; immunoblot
Common to all, as to conditions: both partners purified
In general terms: In western blotting, separated proteins are transferred to a membrane and probed.

The target in one assay is T1, His-FLAG-RGLG1 (Arabidopsis thaliana, UniProt Q9SS90 1-489).
T1 construct: RGLG1, Arabidopsis; CDS subcloned into modified pET28a; also called RING DOMAIN LIGASE 1; source: E. coli BL21, purified (Ni-NTA); not shown: FLAG, N-terminal, kept
T1 sequence (looked up): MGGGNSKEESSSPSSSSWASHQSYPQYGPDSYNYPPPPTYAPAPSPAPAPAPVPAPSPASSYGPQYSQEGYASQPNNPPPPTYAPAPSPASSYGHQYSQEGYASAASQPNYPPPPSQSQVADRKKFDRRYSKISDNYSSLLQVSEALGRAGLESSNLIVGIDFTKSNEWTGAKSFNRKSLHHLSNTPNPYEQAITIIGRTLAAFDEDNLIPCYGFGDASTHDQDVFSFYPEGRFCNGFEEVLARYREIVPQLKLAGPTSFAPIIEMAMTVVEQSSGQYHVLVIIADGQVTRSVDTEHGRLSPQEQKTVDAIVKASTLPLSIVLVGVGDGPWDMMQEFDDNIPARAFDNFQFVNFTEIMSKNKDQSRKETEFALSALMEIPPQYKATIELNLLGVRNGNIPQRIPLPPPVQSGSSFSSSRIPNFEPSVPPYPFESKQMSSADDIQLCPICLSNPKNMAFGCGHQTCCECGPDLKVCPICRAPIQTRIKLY

Assay [1] deals with T2, RGLG2 (recombinant, in vitro; tag of the experiment not told) (Arabidopsis thaliana, UniProt Q9LY87 1-468).
T2 construct: RGLG2, Arabidopsis; CDS subcloned into His-, GST- or MBP-tag vectors; also called RING DOMAIN LIGASE 2; source: E. coli BL21, purified
T2 sequence (looked up): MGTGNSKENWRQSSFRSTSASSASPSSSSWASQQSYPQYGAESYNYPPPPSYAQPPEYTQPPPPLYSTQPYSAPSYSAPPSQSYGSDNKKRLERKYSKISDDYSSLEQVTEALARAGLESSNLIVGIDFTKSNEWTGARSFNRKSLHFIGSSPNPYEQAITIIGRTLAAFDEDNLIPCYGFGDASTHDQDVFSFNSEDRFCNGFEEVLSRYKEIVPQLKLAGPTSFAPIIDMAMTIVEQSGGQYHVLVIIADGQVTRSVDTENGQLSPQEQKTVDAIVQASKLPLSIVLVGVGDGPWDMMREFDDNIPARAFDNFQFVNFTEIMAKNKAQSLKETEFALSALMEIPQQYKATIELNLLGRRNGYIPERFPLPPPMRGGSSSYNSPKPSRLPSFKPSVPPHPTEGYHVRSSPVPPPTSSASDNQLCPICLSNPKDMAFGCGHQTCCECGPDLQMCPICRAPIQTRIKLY

Another assay concerns the target T3, GST-RGLG2 (Arabidopsis thaliana, UniProt Q9LY87 1-468).
T3 construct: RGLG2, Arabidopsis; CDS subcloned into a GST-tag vector; also called RING DOMAIN LIGASE 2; source: E. coli BL21 (recombinant); immobilised on GSH beads; not shown: GST, N-terminal, kept
T3 sequence (looked up): T2 sequence (looked up)

The target in assay [2] is T4, RGLG1 (recombinant, in vitro; tag of the experiment not told) (Arabidopsis thaliana, UniProt Q9SS90 1-489).
T4 construct: RGLG1, Arabidopsis; CDS subcloned into His-, GST- or MBP-tag vectors; also called RING DOMAIN LIGASE 1; source: E. coli BL21, purified
T4 sequence (looked up): T1 sequence (looked up)

B1: GST-BIK1 (natural protein, Arabidopsis thaliana, UniProt O48814 1-395, looked up)
chain: MGSCFSSRVKADIFHNGKSSDLYGLSLSSRKSSSTVAAAQKTEGEILSSTPVKSFTFNELKLATRNFRPDSVIGEGGFGCVFKGWLDESTLTPTKPGTGLVIAVKKLNQEGFQGHREWLTEINYLGQLSHPNLVKLIGYCLEDEHRLLVYEFMQKGSLENHLFRRGAYFKPLPWFLRVNVALDAAKGLAFLHSDPVKVIYRDIKASNILLDADYNAKLSDFGLARDGPMGDLSYVSTRVMGTYGYAAPEYMSSGHLNARSDVYSFGVLLLEILSGKRALDHNRPAKEENLVDWARPYLTSKRKVLLIVDNRLDTQYLPEEAVRMASVAVQCLSFEPKSRPTMDQVVRALQQLQDNLGKPSQTNPVKDTKKLGFKTGTTKSSEKRFTQKPFGRHLV
notes: BIK1, Arabidopsis; pGEX-BIK1 (modified pGEX-6P-1); also called BIK1 fused to a GST tag; source: E. coli BL21, purified; immobilised on GSH beads; not shown: GST, N-terminal, kept
Regarding B1, the binding result (with His-FLAG-RGLG1; in assay [1]) was “binds” throughout.

B2: His-FLAG-PUB25 (natural protein, Arabidopsis thaliana, UniProt Q9LT79 1-421, looked up)
chain: MPRNIEPLDLGIQIPYHFRCPISLELMQDPVTVCTGQTYDRASIESWVSIGNNTTCPVTRAPLSDFTLIPNHTLRRLIQEWCVANRSNGVERIPTPKQPADPTSVRALLSQASAITGTHVSVRSRAAALRRLRGFARDSDKNRVLIAAHNATEILIKILFSETTSSELVSESLALLVMLPITEPNQFVSISSDPGRVEFLTRLLFDSSIETRVNAAALIEIVSTGTKSADLKGSISNSESVFEGVLDLLRNPISSRRALKIGIKTLFALCSVKSTRHIAITAGAPEILIDRLAADFDRCDTERALATVELLCRTPEGCAAFGEHALTVPLLVKTILRVSDRATEYAAGALLALCTAEERWREEAAGAGVVVQLLLMVQSECTERAKKKAQKLLKLLRDSWPDYNSFANSDDFGCSSQVVPF
notes: PUB25, Arabidopsis; CDS subcloned into modified pET28a; also called PLANT U-BOX PROTEIN 25; source: E. coli BL21, purified (Ni-NTA); not shown: FLAG, N-terminal, kept
On to B2, for which, in the assay with GST-RGLG2, the binding result is given as “binds”.

B3: PUB25 (recombinant, in vitro; tag of the experiment not told) (natural protein, Arabidopsis thaliana, UniProt Q9LT79 1-421, looked up)
chain: B2 chain
notes: PUB25, Arabidopsis; CDS subcloned into His-, GST- or MBP-tag vectors; also called PLANT U-BOX PROTEIN 25; source: E. coli BL21, purified
As to B3, the binding result in assay [2] is listed as “binds”.

The values above are taken from publication PMC10397244, “BIK1 protein homeostasis is maintained by the interplay of different ubiquitin ligases in immune signaling” (Nature Communications, 2023).
